Test results taken from patent CN115073593A (SHANGHAI JUNSHI BIOSCIENCES CO LTD; JUNMENG BIOSCIENCES CO …, dated 2022).
Changes are numbered by the printed parent chain.

B1: JS016-38 (antibody, V domains shown)
VH: EVQLVESGGGLVQPGGSLRLSCAASGFRVRRNYMSWVRQAPGKGLEWVSVIYPGGSTFYADSVKGRFTISRDNSMNTLFLQMNSLRAEDTAVYYCARVLPMYGDYLDYWGQGTLVTVSS
VL: DIVMTQSPSSLSASVGDRVTITCRASQNIERYLNWYQQKPGKAPKLLIYAASSLQSGVPSRFSGSGSGTDFTLTISSLQPEDFATYYCQQSASSTPEYTFGQGTKLEIKR
B2: CB6-41 (轻链突变库克隆) (Fab, V domains shown)
VH: B1 VH with R28T, R30S, R31S, P53S
VL: DIVMTQSPSSLSASVGDRVTITCRASQAIAYYLNWYQQKPGKAPKLEIYAASSLQSGVPSRFSGSGSGTDFTLTISSLQPEDFATYYCQQSPSAFPEYTFGQGTKLEIK
notes: also called CB6-41-VL; CB6-41-LC
B3: CB6-38 (轻链突变库克隆) (Fab, V domains shown)
VH: B1 VH with R28T, R30S, R31S, P53S
VL: B2 VL with A28N, A30E, Y31R, E47L, P92A, A94S, F95T
notes: also called CB6-38-VL; CB6-38-LC
B4: CB6-40 (轻链突变库克隆) (Fab, V domains shown)
VH: B1 VH with R28T, R30S, R31S, P53S
VL: B2 VL with A28K, A30S, Y31Q, E47L, P92T, A94F, F95M
notes: also called CB6-40-VL; CB6-40-LC
B5: CB6-39 (轻链突变库克隆) (Fab, V domains shown)
VH: B1 VH with R28T, R30S, R31S, P53S
VL: B2 VL with A28P, A30N, Y31Q, E47L, P92K, A94S, F95L
notes: also called CB6-39-VL; CB6-39-LC
B6: CB6-42 (轻链突变库克隆) (Fab, V domains shown)
VH: B1 VH with R28T, R30S, R31S, P53S
VL: B2 VL with A28S, A30I, Y31Q, E47L, P92A, F95R
notes: also called CB6-42-VL; CB6-42-LC
B7: CB6-43 (轻链突变库克隆) (Fab, V domains shown)
VH: B1 VH with R28T, R30S, R31S, P53S
VL: B2 VL with A28N, A30H, Y31T, E47L, P92G, A94S, F95I
notes: also called CB6-43-VL; CB6-43-LC

What was measured:
重组SARS-CoV-2-RBD-His [1] = biological target: T1, 重组SARS-CoV-2-RBD-His (SARS-CoV-2, UniProt P0DTC2 319-541); experiment: BLI Octet Red 96e, antibody on Protein A probe
T1 construct: domain: RBD

重组SARS-CoV-2-RBD-His [2] = biological target: T1, 重组SARS-CoV-2-RBD-His; experiment: BLI Octet Red 96e, antibody on Protein A probe, RBD-his in solution
生物素化的SARS-CoV-2 RBD = 生物素化的SARS-CoV-2 RBD (SARS-CoV-2, UniProt P0DTC2 319-541); experiment: ELISA screen, Fab culture supernatant on streptavidin-captured biotinylated RBD

Binder	binding result (生物素化的SARS-CoV-2 RBD)	further results
B1	–	fold improvement of the affinity constant over CB6 (重组SARS-CoV-2-RBD-His [1]): ~100 倍; fold slower dissociation rate than CB6 (重组SARS-CoV-2-RBD-His [1]): ~100 倍; Kd (重组SARS-CoV-2-RBD-His [2]): < 0.0741 nM; koff (重组SARS-CoV-2-RBD-His [2]): < 1e-05 s⁻¹; kon (重组SARS-CoV-2-RBD-His [2]): 135000 M⁻¹ s⁻¹
B2	binds	–
B3	binds	–
B4	binds	–
B5	binds	–
B6	binds	–
B7	binds	–
